Reference: US12616740B2, “Methods of using a GIP/GLP1 co-agonist for therapy” (ELI LILLY AND COMPANY, priority 2018, dated 2026)

How the values were obtained:
[1] = NCT03131687: nausea, vomiting and diarrhea, new events per interval; type: in vivo, human
Description: Clinical Study (NCT03131687) Supporting Maintenance Dose Embodiments A 6-month (26-week) Phase 2 double-blind clinical study is designed to evaluate the safety, efficacy, and PK/PD of 4 dose levels (1 mg, 5 mg, 10 mg and 15 mg respectively) of tirzepatide once weekly by subcutaneous injection compared with dulaglutide 1.5 mg. once weekly (QW) and placebo QW in patients with T2DM who have inadequate glycemic control with diet and exercise with or without a stable dose of metformin. Tirzepatide dose is up-titrated to the maintenance dose using the following weekly dose increments:
The study also has a 4-week follow up period. In addition to safety and efficacy for treating T2DM, efficacy endpoints include the effect of tirzepatide on HbA1c, FBG, body weight, lipids, and waist circumference compared with placebo and with dulaglutide 1.5 mg. The study also evaluates the effect of tirzepatide on GI tolerability, hypoglycemia, hypersensitivity reactions, and pancreatic safety, as well as the development of treatment-emergent anti-drug antibodies. Model-based dose response analyses are performed to predict potential for significant HbA1c lowering and weight loss in longer studies. Statistical Analyses: Efficacy: The primary efficacy outcome of HbA1c change from baseline to the 26-week endpoint is analyzed using a Bayesian dose-response model. Analyses are performed on the intention to treat population (mITT) analysis set. Supportive analysis of the primary efficacy outcome for the mITT dataset are the model for post-baseline measures (MMRM) with body mass index (BMI) (<30 kg/m^2, ≥30 kg/m^2), metformin use, treatment, visit, and treatment-by-visit interaction as fixed effects, baseline HbA1c as a covariate, and patient as a random effect. The mean weight change from baseline at 12 and 26 weeks, along with the mean change from baseline of HbA1c at 12 weeks, is analyzed using similar dose-response models as the primary analyses. The percentages of patients with ≥5% or ≥10% body weight loss, reaching the HbA1c target of ≤6.5% or ≤7.0% at 26 weeks, or requiring rescue therapy are analyzed using logistic regression with fixed effects of treatment and strata, and baseline as a covariate. The changes from baseline in FBG (fasting blood glucose), SMBG (self-monitored blood glucose) levels, waist circumference, and mean percentage change in lipids from baseline to 12 and 26 weeks are analyzed using a similar MMRM to the one used for the primary analyses. Table Abbreviations: Dula 1.5 mg=dulaglutide 1.5 mg once weekly; LY means tirzepatide, and LY 1 mg=tirzepatide 1 mg once weekly; LY 5 mg=5 mg once weekly; LY 10 mg=escalation dose group tirzepatide once weekly with highest dose of 10 mg; LY 15 mg=escalation dose group of tirzepatide once weekly with highest dose 15 mg; LOCF=last observation-carried-forward; N=number of patients; pbo=placebo; Week 26=mITT on-treatment data at Week 26 excluding data after study drug discontinuation or rescue drug initiation; mITT=modified intent-to-treat; SD=standard deviation. For Table 4, n=number of patients in the population with baseline and post-baseline value at the specified time point. For Table 6, LY10 mg=escalation dose group tirzepatide, once weekly with highest dose of 10 mg; escalation dose: (5 mg weeks 0 and 1), LY15 mg=escalation dose group tirzepatide, once weekly with highest dose of 15 mg; escalation dose: (5 mg weeks 0 and 1; 10 mg weeks 2 to 5); N=number of patients in specified group, m=number of patients who experienced new event during interval, FolUp=follow up, T/Wk=Time range, (week) and %=means percent patients spending at least some time in treatment group who experienced new event during interval. For Table 7, n is the number of patients with events meeting the criteria; N is number of patients in the population; % is percent of patients in treatment group experiencing the event.

patients with T2DM = test: Biomarkers measured in clinical studies (eGFR, triglyceride); type: in vivo, human
Description: Clinically relevant biomarkers are measured in clinical studies to further support the use of tirzepatide for treating chronic kidney disease. […] Clinical study laboratory measurements support the use of tirzepatide in the treatment of chronic kidney disease. Clinically relevant biomarkers are measured to assess and support the use of tirzepatide in the treatment of atherosclerosis. Clinically relevant triglyceride levels decrease in all tirzepatide treatment groups. Clinical observations support that tirezepatide can be beneficial for use in the treatment of atherosclerosis.

[2] = LY10 mg (tirzepatide 5 mg weeks 0 and 1, then 10 mg once weekly), N = 51, Fol Up (follow up)
[3] = LY10 mg (tirzepatide 5 mg weeks 0 and 1, then 10 mg once weekly), N = 51, T/Wk 0
[4] = LY10 mg (tirzepatide 5 mg weeks 0 and 1, then 10 mg once weekly), N = 51, T/Wk 1
[5] = LY10 mg (tirzepatide 5 mg weeks 0 and 1, then 10 mg once weekly), N = 51, T/Wk 2
[6] = LY10 mg (tirzepatide 5 mg weeks 0 and 1, then 10 mg once weekly), N = 51, T/Wk 3
[7] = LY10 mg (tirzepatide 5 mg weeks 0 and 1, then 10 mg once weekly), N = 51, T/Wk 4
[8] = LY10 mg (tirzepatide 5 mg weeks 0 and 1, then 10 mg once weekly), N = 51, T/Wk 5
[9] = LY10 mg (tirzepatide 5 mg weeks 0 and 1, then 10 mg once weekly), N = 51, T/Wk 6
[10] = LY10 mg (tirzepatide 5 mg weeks 0 and 1, then 10 mg once weekly), N = 51, T/Wk 7
[11] = LY10 mg (tirzepatide 5 mg weeks 0 and 1, then 10 mg once weekly), N = 51, T/Wk 8
[12] = LY10 mg (tirzepatide 5 mg weeks 0 and 1, then 10 mg once weekly), N = 51, T/Wk 9
[13] = LY10 mg (tirzepatide 5 mg weeks 0 and 1, then 10 mg once weekly), N = 51, T/Wk 10
[14] = LY10 mg (tirzepatide 5 mg weeks 0 and 1, then 10 mg once weekly), N = 51, T/Wk 11
[15] = LY10 mg (tirzepatide 5 mg weeks 0 and 1, then 10 mg once weekly), N = 51, T/Wk 12
[16] = LY10 mg (tirzepatide 5 mg weeks 0 and 1, then 10 mg once weekly), N = 51, T/Wk >12 < 16
[17] = LY10 mg (tirzepatide 5 mg weeks 0 and 1, then 10 mg once weekly), N = 51, T/Wk >16 ≤ 20
[18] = LY10 mg (tirzepatide 5 mg weeks 0 and 1, then 10 mg once weekly), N = 51, T/Wk >20
[19] = LY15 mg (tirzepatide 5 mg weeks 0 and 1; 10 mg weeks 2 to 5; then 15 mg once weekly), N = 53, Fol Up (follow up)
[20] = LY15 mg (tirzepatide 5 mg weeks 0 and 1; 10 mg weeks 2 to 5; then 15 mg once weekly), N = 53, T/Wk 0
[21] = LY15 mg (tirzepatide 5 mg weeks 0 and 1; 10 mg weeks 2 to 5; then 15 mg once weekly), N = 53, T/Wk 1
[22] = LY15 mg (tirzepatide 5 mg weeks 0 and 1; 10 mg weeks 2 to 5; then 15 mg once weekly), N = 53, T/Wk 2
[23] = LY15 mg (tirzepatide 5 mg weeks 0 and 1; 10 mg weeks 2 to 5; then 15 mg once weekly), N = 53, T/Wk 3
[24] = LY15 mg (tirzepatide 5 mg weeks 0 and 1; 10 mg weeks 2 to 5; then 15 mg once weekly), N = 53, T/Wk 4
[25] = LY15 mg (tirzepatide 5 mg weeks 0 and 1; 10 mg weeks 2 to 5; then 15 mg once weekly), N = 53, T/Wk 5
[26] = LY15 mg (tirzepatide 5 mg weeks 0 and 1; 10 mg weeks 2 to 5; then 15 mg once weekly), N = 53, T/Wk 6
[27] = LY15 mg (tirzepatide 5 mg weeks 0 and 1; 10 mg weeks 2 to 5; then 15 mg once weekly), N = 53, T/Wk 7
[28] = LY15 mg (tirzepatide 5 mg weeks 0 and 1; 10 mg weeks 2 to 5; then 15 mg once weekly), N = 53, T/Wk 8
[29] = LY15 mg (tirzepatide 5 mg weeks 0 and 1; 10 mg weeks 2 to 5; then 15 mg once weekly), N = 53, T/Wk 9
[30] = LY15 mg (tirzepatide 5 mg weeks 0 and 1; 10 mg weeks 2 to 5; then 15 mg once weekly), N = 53, T/Wk 10
[31] = LY15 mg (tirzepatide 5 mg weeks 0 and 1; 10 mg weeks 2 to 5; then 15 mg once weekly), N = 53, T/Wk 11
[32] = LY15 mg (tirzepatide 5 mg weeks 0 and 1; 10 mg weeks 2 to 5; then 15 mg once weekly), N = 53, T/Wk 12
[33] = LY15 mg (tirzepatide 5 mg weeks 0 and 1; 10 mg weeks 2 to 5; then 15 mg once weekly), N = 53, T/Wk >12 < 16
[34] = LY15 mg (tirzepatide 5 mg weeks 0 and 1; 10 mg weeks 2 to 5; then 15 mg once weekly), N = 53, T/Wk >16 ≤ 20
[35] = LY15 mg (tirzepatide 5 mg weeks 0 and 1; 10 mg weeks 2 to 5; then 15 mg once weekly), N = 53, T/Wk >20

tirzepatide [LY]
Nausea Vomiting and Diarrhea: % patients who experienced new event during interval [1, 2]: 2.1%
Nausea Vomiting and Diarrhea: m, number of patients who experienced new event during interval [1, 2]: 1
Nausea Vomiting and Diarrhea: % patients who experienced new event during interval [1, 3]: 20%
Nausea Vomiting and Diarrhea: m, number of patients who experienced new event during interval [1, 3]: 9
Nausea Vomiting and Diarrhea: % patients who experienced new event during interval [1, 4]: 3.9%
Nausea Vomiting and Diarrhea: m, number of patients who experienced new event during interval [1, 4]: 2
Nausea Vomiting and Diarrhea: % patients who experienced new event during interval [1, 5]: 3.9%
Nausea Vomiting and Diarrhea: m, number of patients who experienced new event during interval [1, 5]: 2
Nausea Vomiting and Diarrhea: % patients who experienced new event during interval [1, 6]: 2.0%
Nausea Vomiting and Diarrhea: m, number of patients who experienced new event during interval [1, 6]: 1
Nausea Vomiting and Diarrhea: % patients who experienced new event during interval [1, 7]: 6.0%
Nausea Vomiting and Diarrhea: m, number of patients who experienced new event during interval [1, 7]: 3
Nausea Vomiting and Diarrhea: % patients who experienced new event during interval [1, 8]: 4.0%
Nausea Vomiting and Diarrhea: m, number of patients who experienced new event during interval [1, 8]: 2
Nausea Vomiting and Diarrhea: % patients who experienced new event during interval [1, 9]: 2.0%
Nausea Vomiting and Diarrhea: m, number of patients who experienced new event during interval [1, 9]: 1
Nausea Vomiting and Diarrhea: % patients who experienced new event during interval [1, 10]: 4.1%
Nausea Vomiting and Diarrhea: m, number of patients who experienced new event during interval [1, 10]: 2
Nausea Vomiting and Diarrhea: % patients who experienced new event during interval [1, 11]: 2.0%
Nausea Vomiting and Diarrhea: m, number of patients who experienced new event during interval [1, 11]: 1
Nausea Vomiting and Diarrhea: % patients who experienced new event during interval [1, 12]: 4.1%
Nausea Vomiting and Diarrhea: m, number of patients who experienced new event during interval [1, 12]: 2
Nausea Vomiting and Diarrhea: % patients who experienced new event during interval [1, 13]: m = 0; 0%
Nausea Vomiting and Diarrhea: m, number of patients who experienced new event during interval [1, 13]: m = 0; 0%
Nausea Vomiting and Diarrhea: % patients who experienced new event during interval [1, 14]: m = 0; 0%
Nausea Vomiting and Diarrhea: m, number of patients who experienced new event during interval [1, 14]: m = 0; 0%
Nausea Vomiting and Diarrhea: % patients who experienced new event during interval [1, 15]: 2.0%
Nausea Vomiting and Diarrhea: m, number of patients who experienced new event during interval [1, 15]: 1
Nausea Vomiting and Diarrhea: % patients who experienced new event during interval [1, 16]: 2.0%
Nausea Vomiting and Diarrhea: m, number of patients who experienced new event during interval [1, 16]: 1
Nausea Vomiting and Diarrhea: % patients who experienced new event during interval [1, 17]: 2.1%
Nausea Vomiting and Diarrhea: m, number of patients who experienced new event during interval [1, 17]: 1
Nausea Vomiting and Diarrhea: % patients who experienced new event during interval [1, 18]: 2.1%
Nausea Vomiting and Diarrhea: m, number of patients who experienced new event during interval [1, 18]: 1
Nausea Vomiting and Diarrhea: % patients who experienced new event during interval [1, 19]: 0.0%
Nausea Vomiting and Diarrhea: m, number of patients who experienced new event during interval [1, 19]: 0
Nausea Vomiting and Diarrhea: % patients who experienced new event during interval [1, 20]: 32.1%
Nausea Vomiting and Diarrhea: m, number of patients who experienced new event during interval [1, 20]: 17
Nausea Vomiting and Diarrhea: % patients who experienced new event during interval [1, 21]: 18.9%
Nausea Vomiting and Diarrhea: m, number of patients who experienced new event during interval [1, 21]: 10
Nausea Vomiting and Diarrhea: % patients who experienced new event during interval [1, 22]: 5.8%
Nausea Vomiting and Diarrhea: m, number of patients who experienced new event during interval [1, 22]: 3
Nausea Vomiting and Diarrhea: % patients who experienced new event during interval [1, 23]: 11.4%
Nausea Vomiting and Diarrhea: m, number of patients who experienced new event during interval [1, 23]: 6
Nausea Vomiting and Diarrhea: % patients who experienced new event during interval [1, 24]: 5.9%
Nausea Vomiting and Diarrhea: m, number of patients who experienced new event during interval [1, 24]: 3
Nausea Vomiting and Diarrhea: % patients who experienced new event during interval [1, 25]: 2.0%
Nausea Vomiting and Diarrhea: m, number of patients who experienced new event during interval [1, 25]: 1
Nausea Vomiting and Diarrhea: % patients who experienced new event during interval [1, 26]: 3.9%
Nausea Vomiting and Diarrhea: m, number of patients who experienced new event during interval [1, 26]: 2
Nausea Vomiting and Diarrhea: % patients who experienced new event during interval [1, 27]: 5.9%
Nausea Vomiting and Diarrhea: m, number of patients who experienced new event during interval [1, 27]: 3
Nausea Vomiting and Diarrhea: % patients who experienced new event during interval [1, 28]: 4.0%
Nausea Vomiting and Diarrhea: m, number of patients who experienced new event during interval [1, 28]: 2
Nausea Vomiting and Diarrhea: % patients who experienced new event during interval [1, 29]: 0.0%
Nausea Vomiting and Diarrhea: m, number of patients who experienced new event during interval [1, 29]: 0
Nausea Vomiting and Diarrhea: % patients who experienced new event during interval [1, 30]: 0.0%
Nausea Vomiting and Diarrhea: m, number of patients who experienced new event during interval [1, 30]: 0
Nausea Vomiting and Diarrhea: % patients who experienced new event during interval [1, 31]: 2.0%
Nausea Vomiting and Diarrhea: m, number of patients who experienced new event during interval [1, 31]: 1
Nausea Vomiting and Diarrhea: % patients who experienced new event during interval [1, 32]: 2.1%
Nausea Vomiting and Diarrhea: m, number of patients who experienced new event during interval [1, 32]: 1
Nausea Vomiting and Diarrhea: % patients who experienced new event during interval [1, 33]: 2.1%
Nausea Vomiting and Diarrhea: m, number of patients who experienced new event during interval [1, 33]: 1
Nausea Vomiting and Diarrhea: % patients who experienced new event during interval [1, 34]: 2.1%
Nausea Vomiting and Diarrhea: m, number of patients who experienced new event during interval [1, 34]: 1
Nausea Vomiting and Diarrhea: % patients who experienced new event during interval [1, 35]: 2.1%
Nausea Vomiting and Diarrhea: m, number of patients who experienced new event during interval [1, 35]: 1
triglyceride levels (in words) (patients with T2DM; all tirzepatide treatment groups): decrease
eGFR (in words) (patients with T2DM; study NCT03131687, at any dosage): no decrease in eGFR was observed
